Data as given in article PMC3597676.

Key:
Hfq [1] = target: T1, Hfq (UniProt P0A6X3 1-102); test: EMSA
Hfq [2] = target: T1, Hfq; test: EMSA; remark: listed apart in the source

T1 sequence (P0A6X3 whole entry): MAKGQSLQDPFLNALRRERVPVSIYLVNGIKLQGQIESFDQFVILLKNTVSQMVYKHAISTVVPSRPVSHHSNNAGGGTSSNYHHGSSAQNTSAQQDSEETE

B1: MicAstab (structured_RNA)
RNA: GAAAGACGCGCAUUUGUUAUCAUCAUCCCUGGGAAAGCGACCGUUUCCCUGGCCACUCACGAGUGGCCUUUUAAAA
Kd (Hfq [1]): 1.5 nM

B2: MicAstab + ompA leader (structured_RNA)
RNA 1: B1 RNA
RNA 2: GGGCCAGGGGUGCUCGGCAUAAGCCGAAGAUAUCGGUAGAGUUAAUAUUGAGCAGAUCCCCCGGUGAAGGAUUUAACCGUGUUAUCUCGUUGGAGAUAUUCAUGGCGUAUUUUGGAUGAUAACGAGGCGCAAAAAAUGAAAAAGACAGCUAUCGCGAUUGCAGUGGCA
binding result (Hfq [2]): binds
